Data as given in patent publication US20200222478A1 (published 2020).

Experiments:
Experiment in all cases: UV peptide exchange + HLA class I ELISA
HLA-A*01:01 = target: T1, HLA-A*01:01 (human, biotinylated heavy chain)
T1 construct: Conditional HLA class I complex first loaded with a UV-labile peptide, which is cleaved by UV and exchanged for the test peptide; captured on streptavidin by its biotinylated heavy chain; also called conditional HLA class I complex
Experimental: (§1) The HLA class I ELISA is an enzyme immunoassay based on the detection of beta2-microglobulin (B2M) of (peptide-stabilized) HLA class I complexes. To this end streptavidin was bound onto polystyrene microtiter wells. […] Non-bound material was removed by washing. Subsequently, horseradish peroxidase (HRP)-conjugated antibody to human B2M was added. […] In the latter case B2M was removed during the washing step. After removal of non-bound HRP conjugate by washing, a substrate solution was added to the wells. A coloured product formed in proportion to the amount of intact HLA complex present in the samples. After the reaction was terminated by the addition of a stop solution, absorbance was measured in a microtiter plate reader.

HLA-A*03:01 = target: T2, HLA-A*03:01 (human, biotinylated heavy chain)
T2 construct: Conditional HLA class I complex first loaded with a UV-labile peptide, exchanged for the test peptide after UV; also called conditional HLA class I complex
Experimental: as §1

HLA-A*24:02 = target: T3, HLA-A*24:02 (human, biotinylated heavy chain)
T3 construct: Conditional HLA class I complex first loaded with a UV-labile peptide, exchanged for the test peptide after UV; also called conditional HLA class I complex
Experimental: as §1

HLA-B*07:02 = target: T4, HLA-B*07:02 (human, biotinylated heavy chain)
T4 construct: Conditional HLA class I complex first loaded with a UV-labile peptide, exchanged for the test peptide after UV; also called conditional HLA class I complex
Experimental: as §1

HLA-B*08:01 = target: T5, HLA-B*08:01 (human, biotinylated heavy chain)
T5 construct: Conditional HLA class I complex first loaded with a UV-labile peptide, exchanged for the test peptide after UV; also called conditional HLA class I complex
Experimental: as §1

HLA-A*02:01 = target: T6, HLA-A*02:01 (human, biotinylated heavy chain)
T6 construct: Conditional HLA class I complex first loaded with a UV-labile peptide, exchanged for the test peptide after UV; also called conditional HLA class I complex
Experimental: as §1

| Binder | exchange rate vs Pos peptide (HLA-A*01:01) | exchange rate vs Pos peptide (HLA-A*03:01) | exchange rate vs Pos peptide (HLA-A*24:02) | exchange rate vs Pos peptide (HLA-B*07:02) | exchange rate vs Pos peptide (HLA-B*08:01) | exchange rate vs Pos peptide (HLA-A*02:01) |
| --- | --- | --- | --- | --- | --- | --- |
| FFKRAAEGF [P77 9-mer peptide (AR-V3 splice variant)] | 1.9% | 2.8% | 1.7% | 14.2% | 3.4% |  |
| NSKMALNSL [P35 9-mer peptide (TMPRSS2-ERG fusion)] | 2.5% | 4.2% | 0.2% | 12.1% | 13.7% | 12.5% |
| FPVGAEGTF [P27 9-mer peptide (FAM126B-ORC2 fusion)] | 4.8% | 4.5% | 0.7% | 7.8% | 6.4% | 10% |
| STRRAVRRM (Synthetic 9-mer fragment) [P16 9-mer peptide (MSMB-NCOA4 fusion)] | 5.5% | 6.1% | 0.8% | 13.7% | 6.2% | 10.4% |
| IQYSCMGLM [P50 9-mer peptide (AR (W742C))] | 2.3% | 5.5% | 0.1% | 10.4% | 4.7% | 8.8% |
| GVLRRLLCR [P37 9-mer peptide (TSTD1-F11R fusion)] | 1.4% | 6.4% | -0.1% |  | 3.3% | 12.5% |
| NMVENGCYL [P59 9-mer peptide (FOXA1 (F254V))] | 2.2% | 4.5% | -0.5% | 7.5% | 5.5% | 11.9% |
